Data taken from patent publication US20230118307A1, “THERAPEUTIC USE OF LONG-ACTING CONJUGATE OF TRIPLE AGONIST HAVING ACTIVITIES TO ALL OF GLUCAGON/GLP-1/GIP RECEPTORS FOR LUNG DISEASE” (HANMI PHARM. CO., LTD., priority 2020, published 2023).
Positions of bridges follow the written chain, without caps; N, C: chain ends. Non-standard residues stand in square brackets, D forms with d. No end group written: not given here. *: point of attachment. Acetyl(2-(4-imidazolyl)) = O=C(Cc1c[nH]cn1)*; Aib = CC(C)(N)C(=O)O

T1: human GIP receptor (human, UniProt P48546 22-466)
T1 sequence (looked up): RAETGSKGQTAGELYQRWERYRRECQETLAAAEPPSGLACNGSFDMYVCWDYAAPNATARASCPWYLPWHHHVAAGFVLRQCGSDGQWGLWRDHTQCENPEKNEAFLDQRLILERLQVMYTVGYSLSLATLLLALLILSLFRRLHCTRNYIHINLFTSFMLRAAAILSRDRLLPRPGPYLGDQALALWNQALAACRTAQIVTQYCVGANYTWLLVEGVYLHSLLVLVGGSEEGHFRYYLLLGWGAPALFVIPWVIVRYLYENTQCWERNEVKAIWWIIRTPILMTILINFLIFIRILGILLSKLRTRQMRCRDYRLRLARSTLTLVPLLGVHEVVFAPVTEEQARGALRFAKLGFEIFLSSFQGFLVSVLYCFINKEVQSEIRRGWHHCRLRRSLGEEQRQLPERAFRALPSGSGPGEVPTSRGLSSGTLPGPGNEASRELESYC


What was measured:
Experiment in all cases: cell-based or functional assay
[1] = target: human GLP-1 receptor (human, UniProt P43220 24-463)
[2] = target: human GCG receptor (human, UniProt P47871 26-477)
[3] = target: T1, human GIP receptor

human GCG receptor, sequence (P47871 26-477): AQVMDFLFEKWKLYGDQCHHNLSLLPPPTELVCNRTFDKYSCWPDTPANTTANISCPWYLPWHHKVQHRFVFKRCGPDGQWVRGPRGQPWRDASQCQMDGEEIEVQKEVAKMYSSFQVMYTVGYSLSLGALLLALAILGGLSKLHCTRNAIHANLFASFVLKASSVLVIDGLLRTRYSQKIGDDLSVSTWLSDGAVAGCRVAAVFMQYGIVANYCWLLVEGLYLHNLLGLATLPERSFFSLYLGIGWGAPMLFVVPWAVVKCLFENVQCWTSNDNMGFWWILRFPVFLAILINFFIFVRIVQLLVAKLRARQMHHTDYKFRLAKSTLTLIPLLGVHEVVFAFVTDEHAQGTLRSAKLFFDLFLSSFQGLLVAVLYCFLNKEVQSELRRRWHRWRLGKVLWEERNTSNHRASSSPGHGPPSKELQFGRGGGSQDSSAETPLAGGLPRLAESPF

Binder | In vitro Activity Compared to Native Peptide (%) vs. GLP-1 [1] | In vitro Activity Compared to Native Peptide (%) vs. Glucagon [2] | In vitro Activity Compared to Native Peptide (%) vs. GIP [3]
Y[Aib]QGTFTSDYSKALDEKAAKDFVNWLLDQHPSSGQPPPSC (bridge 16-20) [triple agonist of SEQ ID NO: 102] | 23.3% | 29.5% | 58%
[Acetyl(2-(4-imidazolyl))][Aib]QGTFTSDYSIAMDEIHQKDFVNWLLNTC (bridge 16-20) [triple agonist of SEQ ID NO: 87] | 0.9% | < 0.1% | < 0.1%
[Acetyl(2-(4-imidazolyl))]GQGTFTSDYSIQLDEIAVRDFVEWLKNGGPSSGAPPPSHG [triple agonist of SEQ ID NO: 14] | 28% | < 0.1% | < 0.1%
[Acetyl(2-(4-imidazolyl))][Aib]EGTFTSDYSIAMDEIHQKDFVDWLLAEKC (bridge 16-20) [triple agonist of SEQ ID NO: 91] | 31.9% | 16.8% | 0.3%
Y[Aib]QGTFTSDYSKALDEKAAKEFVNWLLDHHPSSGQPPPSC (bridge 16-20) [triple agonist of SEQ ID NO: 98] | 28.1% | 8.2% | 47.1%
Y[Aib]QGTFTSDYSKALDEKAAKEFVNWLLDQHPSSGQPPPSC (bridge 16-20) [triple agonist of SEQ ID NO: 101] | 23.2% | 13.9% | 40.1%
H[Aib]QGTFTSDVSKYLDGQAAQEFVAWLLAGGGPSSGAPPPSC [triple agonist of SEQ ID NO: 10] | 46% | < 0.1% | < 0.1%
[Acetyl(2-(4-imidazolyl))][Aib]EGTFTSDYSIAMDEIHQKDFVNWLLAQKC (bridge 16-20) [triple agonist of SEQ ID NO: 90] | 7.4% | < 0.1% | < 0.1%
[Acetyl(2-(4-imidazolyl))][Aib]QGTFTSDYSIAMDEIHQKDFVNWLLNTKC (bridge 16-20) [triple agonist of SEQ ID NO: 94] | 0.5% | < 0.1% | < 0.1%
[Acetyl(2-(4-imidazolyl))][Aib]QGTFTSDYSKYLDEKRQKEFVQWLLNTKC (bridge 16-20) [triple agonist of SEQ ID NO: 88] | 9.6% | 0.3% | < 0.1%
[Acetyl(2-(4-imidazolyl))][Aib]QGTFTSDYSKYLDEKRQKEFVQWLLDTKC (bridge 16-20) [triple agonist of SEQ ID NO: 89] | 7.1% | 0.7% | < 0.1%
[Acetyl(2-(4-imidazolyl))]GEGTFISDLSKYMDEQAVQLFVEWLMAGGPSSGAPPPSHG [triple agonist of SEQ ID NO: 12] | 0.4% | < 0.1% | < 0.1%
[Acetyl(2-(4-imidazolyl))][Aib]QGTFTSDYSKYLDEKRQKEFVNWLLAQKC (bridge 16-20) [triple agonist of SEQ ID NO: 93] | 5.7% | 0.3% | 0.7%
Y[Aib]QGTFTSDYSKYLDEKRAKEFVQWLLCHHPSSGQPPPS (bridge 16-20) [triple agonist of SEQ ID NO: 95] | 2.1% | 0.4% | < 0.1%
[Acetyl(2-(4-imidazolyl))][Aib]QGTFTSDYSIAMDEIHQKDFVNWLLAQKC (bridge 16-20) [triple agonist of SEQ ID NO: 92] | 0.8% | < 0.1% | 0.4%
Y[Aib]QGTFTSDYSKALDEKAAKEFVQWLLDQHPSSGQPPPSC (bridge 16-20) [triple agonist of SEQ ID NO: 100] | 42.2% | 12.7% | 118%
Y[Aib]QGTFTSDYSKYLDEKRAKEFVQWLLDCHPSSGQPPPS (bridge 16-20) [triple agonist of SEQ ID NO: 97] | 10.5% | 62.8% | 2.6%
H[Aib]QGTFTSDVSSYLDGQAQKEFIAWLVKGC [triple agonist of SEQ ID NO: 2] | 5.9% | < 0.1% | < 0.1%
Y[Aib]QGTFTSDYSKYLDEKRAKEFVQWLLDHCPSSGQPPPS (bridge 16-20) [triple agonist of SEQ ID NO: 96] | 34.4% | 195% | 5.2%
[Acetyl(2-(4-imidazolyl))]GEGTFTSDLSKYLDSRRQQLFVQWLKAGGPSSGAPPPSHG [triple agonist of SEQ ID NO: 11] | 1.4% | < 0.1% | < 0.1%
[Acetyl(2-(4-imidazolyl))]GEGTFISDYSIQLDEIAVQDFVEWLLAQKPSSGAPPPSHG [triple agonist of SEQ ID NO: 13] | < 0.1% | < 0.1% | < 0.1%
Y[Aib]QGTFTSDYSKALDEKAAKDFVNWLLDHHPSSGQPPPSC (bridge 16-20) [triple agonist of SEQ ID NO: 99] | 20.9% | 14.9% | 57.7%
